Assay results: patent publication US10350168B2, “Dermal delivery compositions comprising active agent-calcium phosphate particle complexes and methods of using the same” (Laboratory Skin Care, Inc., priority 2009, dated 2019)

Assays:
[1] = Lysozyme binding to calcium phosphate particles (UV 280 nm); assay type: physicochemical; conditions: pH 6.83
Method: • Calcium phosphate particles • Lysozyme, MP biomedicals LLC. Product No. ICN10083405 • Phosphoric acid, Fisher Scientific, Product No. A260500 Methods: • i. 364.7 mg of Lysozyme as dissolved in 18.01 ml of water (20.25 mg/ml). • ii. 0.8 g of calcium phosphate particles were mixed with 4 ml of water, and the pH of the suspension was adjusted to neutral with diluted phosphoric acid. • iii. 4 ml of Lysozyme solution (20.25 mg/ml) was added to the suspension of calcium phosphate particles to achieve a final concentration of 10.124 mg/ml, and a final volume of 8 ml. The final pH was measured. • iv. The suspension was mixed for 30 min, and centrifuged at 2000×g for 10 min in a bench top centrifuge. • v. The absorbance of supernatant was measured at 280 nm (the detection wavelength for Lysozyme) by UV spectrophotometer. • vi. […]

[2] = pH dependent release of lysozyme from lysozyme calcium phosphate complexes; assay type: physicochemical; conditions: flow 1 mL/hr, 8 hours
Method: In the stratum corneum, the pH ranges from approximately 4.3 to 5.0 with pH […] with stratum corneum depth. To study calcium phosphate particle release active agent at conditions analogous to skin, two lysozyme calcium phosphate complexes were exposed to buffers of ph 4.8 (0.5 M sodium acetate) and 7.0 (10 mM Bis Tris) for 8 hours. The buffers flowed through the samples at a rate of 1 mL/hr and were collected hourly and analyzed for lysozyme release by monitoring the peak at 280 nm by UV spectrometer. An equivalent mass of lysozyme Calcium phosphate particles complex was vortexed in pH 4.8 buffer to estimate the total available lysozyme in the sample.

[3] = Tape-stripping analysis of topical application of active-calcium phosphate complexes; assay type: in vivo; conditions: lysozyme-calcium phosphate particle formulation, human forearm, ten tape strips
Method: The purpose of this study was to detect the distribution of actives in the stratum corneum following topical application of the active-calcium phosphate particles • Method: The distribution of STAY C50 within the stratum corneum was assessed by serial tape stripping of the skin to which a STAY C50-calcium phosphate particle formulation was applied. An application site on the forearm of a human subject was marked and 200 μl of the formulation spread by spatula. The site was allowed to dry for 10 minutes and then followed by ten pre-weighed tape stripping using strips of (3 in^2) applied to the application site. STAY C50 was extracted from the tape strips by sonicating the samples in water for 30 minutes and analyzing the samples by HPLC. […] An application site on the forearm of a human subject was marked and 200 μl of the formulation spread by spatula. The site was allowed to dry for 10 minutes and then followed by ten pre-weighed tape stripping using strips of (3 in^2) applied to the application site. Lysozyme was extracted from the tape strips by sonicating the samples in water for 30 minutes and analyzing the samples by HPLC. Lysozyme was detected to a depth of 6 tape strips (FIG. 10). 5. Controlled Slow Release of Active Agents by Franz Cell • Purpose: The purpose of this study was to detect riboflavin from riboflavin attached to calcium phosphate particles. […]

Lysozyme: Lysozyme, MP biomedicals LLC
Lysozyme bound to calcium phosphate particles [1]: 6.8 mg/g
lysozyme release from calcium phosphate particles ([2]; pH 4.8 (0.5 M sodium acetate)): most of the lysozyme releasing within the first hour
lysozyme release from calcium phosphate particles ([2]; pH 7.0 (10 mM Bis Tris)): no lysozyme is observed released
depth of detection [3]: 6 tape strips
